Data as given in patent US20120045393A1 (priority 2009, published 2012).
Like-named read-outs stand apart in the source and are kept apart here. Blank lines part the entries; values can stand above or below the molecule they belong to. Non-standard residues stand in square brackets, D forms with d. Bpa = N[C@@H](Cc1ccc(C(=O)c2ccccc2)cc1)C(=O)O; DO3A10CM = not defined here; Bpa4 = non-natural residue; Damfe4 = not defined here; Amfe4 = not defined here; azaGly = NNC(=O)O; Sar = CNCC(=O)O

Tests used:
[1] = target: LHRH receptor (LHRH binding sites) on EFO-27 human ovarian cancer cells (human); assay: competition with [125I-Tyr8]BRU-2477 for binding to EFO-27 cells
[2] = tested on: LHRH binding sites on human ovarian cancer cells (EFO-27);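 also: Cell-associated radioactivity on confluent EFO-27 monolayers in 96-well plates, measured by microplate scintillation counting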
EFO-27 cells = assay: Internalization/efflux studies in EFO-27 cells; type: cell-based, human; details: for Cell associated activity at 0 h % Intern / Cell associated activity at 2 h % Intern: internalized; for Cell associated activity at 0 h % Memb / Cell associated activity at 2 h % Memb: membrane bound; for Bound %: of added; for Bound: per well
Description: Internalization/Efflux Studies: The internalization and efflux studies were carried out following the general procedure. Basically, ^177Lu-LHRH II or ^125I-LHRH II ([^125I-Tyr^8]BRU-2477) (75 uL, 3.0 μCi/mL) was added to the EFO-27 or PC-3 cells. The cells were incubated for 40 min at 37° C. The unbound radioactivity was washed off (4×). Following addition of fresh medium, the cells were further incubated for up to 2 h. At various time points (15, 30, 60 & 120 min) the distribution of radioactivity (membrane-bound, internalized, and efflux) was determined
The internalization and efflux of several Lu-177 labeled LHRH II analogs in EFO-27 cells have been investigated. Basically, following pre-incubation of cells with ^177Lu-LHRH II samples, the binding buffer containing the ^177Lu was replaced with fresh media without complex. The extent of initial internalization (T=0), the amount of radioactive material that remained internalized and the efflux at 0-120 min were determined. The results are shown in FIGS. 21a-f and 22a-c and in Table 25.

[3] = target: LHRH receptor (LHRH binding sites) on EFO-27 human ovarian cancer cells (human); assay: competition with [125I-Tyr8]BRU-2477, EFO-27 cells
[4] = target: LHRH binding sites on EFO-27 human ovarian cancer cells (human); assay: competition with [125I-Tyr8]BRU-2477 on EFO-27 cells

- EC50 [1]: 3300 nM
Molecule: DO3A10CM-Adoa-Sar-His-Trp-Ser-His-Darg-Trp-Bpa4-Pro-azaGly-NH2 (Seq111) (peptide)

- EC50 [2]: 240 nM
Molecule: N=C(N)NCCC[C@H](NC(=O)[C@@H](Cc1ccc2ccccc2c1)NC(=O)CN1CCN(CC(=O)O)CCN(CC(=O)O)CCN(CC(=O)O)CC1)C(=O)N[C@@H](Cc1c[nH]c2ccccc12)C(=O)N[C@@H](CO)C(=O)N[C@@H](Cc1c[nH]cn1)C(=O)N[C@H](CCCNC(=N)N)C(=O)N[C@@H](Cc1c[nH]c2ccccc12)C(=O)N[C@@H](Cc1ccc(C(=O)c2ccccc2)cc1)C(=O)N1CCC[C@H]1C(=O)NCCOCCN [BRU-2968, DO3A10CM-Dna12-Arg-Trp-Ser-His-Darg-Trp-Bpa4-Pro-Da15o3pt]
- Cell associated activity at 0 h % Efflux (EFO-27 cells): 4.9%
- Cell associated activity at 0 h % Intern (EFO-27 cells): 14.1%
- Cell associated activity at 0 h % Memb (EFO-27 cells): 80.8%
- Cell associated activity at 2 h % Efflux (EFO-27 cells): 52.9%
- Cell associated activity at 2 h % Intern (EFO-27 cells): 9.0%
- Cell associated activity at 2 h % Memb (EFO-27 cells): 38.1%
- Bound % (EFO-27 cells): 23.59%
- Bound (EFO-27 cells): 68.8 fmol

- EC50 ([2]; Table 5: modifications of amino acids at positions 1 and 2, in vitro binding on EFO-27 cells): 280 nM
Molecule: BRU-2756: DO3A10CM LHRH-II analog prepared in house for Lu labeling (DO3A10CM-[Sar][Amfe4]WSH[dR]W[Bpa4]P[azaGly]-NH2; reading uncertain)
- Cell associated activity at 0 h % Efflux (EFO-27 cells): 7.7%
- Cell associated activity at 0 h % Intern (EFO-27 cells): 42.0%
- Cell associated activity at 0 h % Memb (EFO-27 cells): 51.5%
- Cell associated activity at 2 h % Efflux (EFO-27 cells): 82.5%
- Cell associated activity at 2 h % Intern (EFO-27 cells): 9.9%
- Cell associated activity at 2 h % Memb (EFO-27 cells): 7.4%
- Bound % (EFO-27 cells): 5.10%
- Bound (EFO-27 cells): 10.2 fmol

- EC50 [2]: 470 nM
Molecule: N=C(N)NCCC[C@@H](NC(=O)[C@H](Cc1c[nH]cn1)NC(=O)[C@H](CO)NC(=O)[C@H](Cc1c[nH]c2ccccc12)NC(=O)[C@H](Cc1c[nH]cn1)NC(=O)[C@@H](Cc1ccc2ccccc2c1)NC(=O)CN1CCN(CC(=O)O)CCN(CC(=O)O)CCN(CC(=O)O)CC1)C(=O)N[C@@H](Cc1c[nH]c2ccccc12)C(=O)N[C@@H](Cc1ccc(C(=O)c2ccccc2)cc1)C(=O)N1CCC[C@H]1C(=O)NNC(N)=O [BRU-2666]
- times more potent than the comparator analog ([2]; BRU-2441 vs BRU-2439, BRU-2666 vs Sar1 analog, BRU-3072 vs Pro9 analog): 2
- Cell associated activity at 0 h % Efflux (EFO-27 cells): 5.5%
- Cell associated activity at 0 h % Intern (EFO-27 cells): 43.6%
- Cell associated activity at 0 h % Memb (EFO-27 cells): 50.3%
- Cell associated activity at 2 h % Efflux (EFO-27 cells): 80.6%
- Cell associated activity at 2 h % Intern (EFO-27 cells): 10.0%
- Cell associated activity at 2 h % Memb (EFO-27 cells): 9.5%
- Bound % (EFO-27 cells): 12.20%
- Bound (EFO-27 cells): 25.0 fmol

- EC50 [3]: 440 nM
- EC50 [4]: 440 nM
B1: BRU-3056 (peptide)
peptide: XRWSHXWXPX
modifications: N-terminal DO3A10CM; Apsp at 1; Darg at 6; Bpa4 at 8; azaGly-NH2 at 10

- EC50 [1]: 1480 nM
- fold reduced binding against peptide 18 (BRU-3103) [4]: 5 to 6 fold
B2: BRU-3074 (peptide)
peptide: XRWSHXWXP
modifications: as printed: Sar-R-W-S-H-Darg-W-Bpa4-P-NHNH-DO3A10CM (C-terminal chelator)

- EC50 [1]: 3200 nM
B3: BRU-2896 (peptide)
peptide: XHWSHXWXPX
modifications: as printed: DO3A10CM-Adoa-Adoa-Sar-His-Trp-Ser-His-Darg-Trp-Bpa4-Pro-azaGly-NH2 (Adoa-Adoa is the linker)

- EC50 [1]: 30200 nM
B4: BRU-2990 (peptide)
peptide: XRWSHXWXPG
modifications: as printed: Dnal2-R-W-S-H-Darg-W-Bpa4-P-G-Dabt14-DO3A10CM (C-terminal chelator)

- EC50 [3]: 220 nM
- EC50 [4]: 220 nM
B5: BRU-3105 (peptide)
peptide: XRXSHXWXPX
modifications: N-terminal DO3A10CM; Dnal2 at 1; Nal2 at 3; Darg at 6; Bpa4 at 8; azaGly-NH2 at 10

- EC50 [1]: 1370 nM
B6: BRU-2795 (peptide)
peptide: GGHWSHXWXPX
modifications: as printed: DO3A10CM-Gly-Gly-His-Trp-Ser-His-Darg-Trp-Bpa4-Pro-azaGly-NH2 (first Gly is the linker)

- EC50 [3]: 430 nM
- EC50 [4]: 430 nM
B7: BRU-3054 (peptide)
peptide: XRWSHXWXPX
modifications: N-terminal DO3A10CM; Dtyr at 1; Darg at 6; Bpa4 at 8; azaGly-NH2 at 10

- EC50 [3]: 380 nM
- EC50 [4]: 380 nM
B8: BRU-3069 (peptide)
peptide: XRWSHXWXPX
modifications: N-terminal DO3A10CM; Thy at 1; Darg at 6; Bpa4 at 8; azaGly-NH2 at 10

- EC50 [1]: 1020 nM
- fold reduced binding against peptide 18 (BRU-3103) [4]: 5 to 6 fold
B9: BRU-3086 (peptide)
peptide: XRWSHXWXP
modifications: as printed: Sar-R-W-S-H-Darg-W-Bpa4-P-M1daprp13-DO3A10CM (C-terminal chelator)

- EC50 [3]: 320 nM
- EC50 [4]: 320 nM
B10: BRU-3053 (peptide)
peptide: GXRWSHXWXPX
modifications: N-terminal DO3A10CM; Gly linker before 1; Tpi at 1; Darg at 6; Bpa4 at 8; azaGly-NH2 at 10

- EC50 [3]: 290 nM
- EC50 [4]: 290 nM
B11: BRU-3095 (peptide)
peptide: DO3A10CM-[Damfe4][Damfe4]WSH[dR]W[Bpa]P[azaGly]-NH2
modifications: reading uncertain

- EC50 [1]: 590 nM
B12: BRU-3079 (peptide)
peptide: XHWSHXWXP
modifications: as printed: Sar-H-W-S-H-Darg-W-Bpa4-P-Dae-DO3A10CM (C-terminal chelator)

- EC50 [3]: 350 nM
- EC50 [4]: 350 nM
B13: BRU-3094 (peptide)
peptide: XRWSHXWXPX
modifications: N-terminal DO3A10CM; Ampha4 at 1; Darg at 6; Bpa4 at 8; azaGly-NH2 at 10

- EC50 [3]: 400 nM
- EC50 [4]: 400 nM
B14: BRU-2960 (peptide)
peptide: XRWSXXWXPX
modifications: N-terminal DO3A10CM; Dnal2 at 1; Fur3ala at 5; Darg at 6; Bpa4 at 8; azaGly-NH2 at 10

- EC50 [1]: 370 nM
- EC50 [3]: 370 nM
B15: BRU-3096 (peptide)
peptide: XXRWSHXWXPX
modifications: as printed: DO3A10CM-Dap-Dnal2-Arg-Trp-Ser-His-Darg-Trp-Bpa4-Pro-azaGly-NH2 (Dap is the linker)

- EC50 [3]: 280 nM
- EC50 [4]: 280 nM
B16: BRU-3070 (peptide)
peptide: XRWSHXWXPX
modifications: N-terminal DO3A10CM; Bip at 1; Darg at 6; Bpa4 at 8; azaGly-NH2 at 10

- EC50 [1]: 500 nM
- EC50 [3]: 500 nM
B17: BRU-3002 (peptide)
peptide: XXRWSHXWXPX
modifications: as printed: DO3A10CM-Gly-Abz4-Dnal2-Arg-Trp-Ser-His-Darg-Trp-Bpa4-Pro-azaGly-NH2 (Gly-Abz4 is the linker)
